Two molecules from patent CN114317455A can be followed below.

For assay [1], the target named is MCR-1蛋白. In words: indirect ELISA; MCR-1 coated at 0.2 ug/mL; purified antibody (1 mg/ml) diluted two-fold from 1:1000; goat anti-mouse secondary. On the technique in general: ELISA stands for enzyme-linked immunosorbent assay.
Assay [2] deals with MCR-1蛋白. Kind of assay: double-antibody sandwich ELISA; 1HD4 coated at 0.2 mg/ml as capture, HRP-labelled 1JA9 as detection, OD450.

Bounds are passed on as bounds.

B1: 鼠抗MCR-1蛋白单克隆抗体 1JA9 (antibody, V domains shown)
VH: VKLQESGPELVKPGASVKMSCRTSGYTFTSYIMHWVKQKPGQGLEWIGYFNPYTDGSKYNEMFNGKATLSSDKSSGTAYMEFSSLTSEDSAVYYCARGPYGNYAMDYWGQGTSVTVSA
VL: EILLTQTPLSLPVSLGDQASISCRSSQNIVHSYGNPSLEWYLQKPGQSPKLLIYKVSNRFSGVPDRFSGSGSGTDFTLKISRVEAEDLGVYYCFQASHVPWTFGGGTKLEIKR
B1 gave a 效价 (ELISA titer, dilution of 1 mg/ml antibody) (dilution factor (1:x)) with MCR-1蛋白 [1] above 1.28e+06. The same molecule yielded a 检测抗原灵敏度 (dilution factor) (dilution factor (1:x)) with MCR-1蛋白 [2] of 5.12e+06.

B2: 鼠抗MCR-1蛋白单克隆抗体 1HD4 (antibody, V domains shown)
VH: VKLQESGPELVKPGASVKVSCKASGYIFTCCKMYWVKQSHGKSLEWIGYFDPYNGDTSSNQKFKGKVTLTVDKSSSTAYMFLNSLTSEDSAVYYCASWLQNYYAMDYWGQGTSVTVSS
VL: DVQMTQTTSSLSASLGDRVTISCRASQDISNYLNWYQQKPDGTVKLLIYYTSRLHSGVPSRFSGSGSGADYSLTISNLEEEDIATYFCQQGNTFPYTFGGGTKLEIK
Regarding B2, the 效价 (ELISA titer, dilution of 1 mg/ml antibody) (dilution factor (1:x)) with MCR-1蛋白 [1] was above 1.28e+06.
